According to publication PMC3493575, “Elongation Factor 1 alpha1 and Genes Associated with Usher Syndromes Are Downstream Targets of GBX2”:

Columns and labels:
GBX2ΔHD = GBX2ΔHD (mouse, UniProt P48031 1-94); assay: EMSA; 940 pM probe, 720 nM GBX2; 2X binding buffer: 20 mM Tris-HCl pH 7.4, 50 mM KCl, 1 mM DTT, 10% glycerol, 200 ug/mL BSA, 2.2 ug/mL poly dI/dC; 30 min, 25 C; 6% native PAGE, Tris-glycine; conditions: protein: recombinant; tags: V5-6xHis (pET101/D-TOPO); label: 32P end label; blunt
Sequence of GBX2ΔHD (P48031 1-94, stated change not applied): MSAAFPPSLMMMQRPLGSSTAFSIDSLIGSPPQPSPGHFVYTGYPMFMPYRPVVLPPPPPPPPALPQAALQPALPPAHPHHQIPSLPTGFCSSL

GBX2 full-length = GBX2 full-length (mouse, UniProt P48031 1-348); assay: EMSA; supershift with anti-GBX2; 940 pM probe, 720 nM GBX2; 2X binding buffer: 20 mM Tris-HCl pH 7.4, 50 mM KCl, 1 mM DTT, 10% glycerol, 200 ug/mL BSA, 2.2 ug/mL poly dI/dC; 30 min, 25 C; 6% native PAGE, Tris-glycine; conditions: protein: recombinant; tags: V5-6xHis (pET101/D-TOPO); label: 32P end label; blunt
Sequence of GBX2 full-length (P48031 whole entry): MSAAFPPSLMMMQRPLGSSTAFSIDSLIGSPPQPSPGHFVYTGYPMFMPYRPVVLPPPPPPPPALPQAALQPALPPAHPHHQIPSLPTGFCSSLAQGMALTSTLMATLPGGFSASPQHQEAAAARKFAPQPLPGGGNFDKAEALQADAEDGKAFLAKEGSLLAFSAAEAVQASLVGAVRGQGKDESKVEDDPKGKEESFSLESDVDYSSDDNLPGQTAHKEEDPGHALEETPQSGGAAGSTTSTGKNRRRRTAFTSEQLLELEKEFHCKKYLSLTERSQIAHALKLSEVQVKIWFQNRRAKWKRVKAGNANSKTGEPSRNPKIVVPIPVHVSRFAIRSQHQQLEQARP

B1: PCDH15 100-mer probe (dsDNA)
DNA 1: TTACAATTTCATTTGTACAGGTAAGTATATACTTTTCTTTCATTGTTTCTTTTTAATATTCCCATTAGTGGGAATTCAGGCTATCTGTCTCTTACCTATC
DNA 2: GATAGGTAAGAGACAGATAGCCTGAATTCCCACTAATGGGAATATTAAAAAGAAACAATGAAAGAAAAGTATATACTTACCTGTACAAATGAAATTGTAA
binding result (GBX2ΔHD): no binding | binding result (GBX2 full-length): binds
